These results are taken from patent publication US9549967B2, “Regulation of sodium channels by PLUNC proteins” (The University of North Carolina at Chapel Hill, priority 2009, dated 2017).

The experiment has as its target T1, αENaC (Rattus norvegicus, UniProt P37089).
T1 construct: expressed in transfected cells; host or cells: Xenopus oocytes
T1 sequence (P37089 1-698): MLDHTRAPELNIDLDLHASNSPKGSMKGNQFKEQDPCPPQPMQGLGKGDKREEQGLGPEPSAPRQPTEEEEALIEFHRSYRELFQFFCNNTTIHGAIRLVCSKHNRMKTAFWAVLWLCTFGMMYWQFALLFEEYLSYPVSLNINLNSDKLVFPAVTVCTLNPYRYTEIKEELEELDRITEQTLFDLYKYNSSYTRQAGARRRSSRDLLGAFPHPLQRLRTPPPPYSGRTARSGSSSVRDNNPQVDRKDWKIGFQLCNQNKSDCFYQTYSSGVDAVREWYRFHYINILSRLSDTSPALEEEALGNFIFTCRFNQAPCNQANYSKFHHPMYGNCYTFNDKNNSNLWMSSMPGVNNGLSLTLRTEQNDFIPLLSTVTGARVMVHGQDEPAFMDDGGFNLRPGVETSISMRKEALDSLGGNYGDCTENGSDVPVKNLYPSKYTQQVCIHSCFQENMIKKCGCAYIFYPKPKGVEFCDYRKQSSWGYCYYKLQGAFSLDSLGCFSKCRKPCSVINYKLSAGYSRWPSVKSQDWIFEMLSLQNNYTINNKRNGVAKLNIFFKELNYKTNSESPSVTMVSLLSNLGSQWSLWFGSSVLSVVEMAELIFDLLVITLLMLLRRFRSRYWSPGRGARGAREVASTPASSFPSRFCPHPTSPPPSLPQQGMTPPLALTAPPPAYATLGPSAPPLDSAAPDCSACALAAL
T1 sequence (P37090 1-638 partner): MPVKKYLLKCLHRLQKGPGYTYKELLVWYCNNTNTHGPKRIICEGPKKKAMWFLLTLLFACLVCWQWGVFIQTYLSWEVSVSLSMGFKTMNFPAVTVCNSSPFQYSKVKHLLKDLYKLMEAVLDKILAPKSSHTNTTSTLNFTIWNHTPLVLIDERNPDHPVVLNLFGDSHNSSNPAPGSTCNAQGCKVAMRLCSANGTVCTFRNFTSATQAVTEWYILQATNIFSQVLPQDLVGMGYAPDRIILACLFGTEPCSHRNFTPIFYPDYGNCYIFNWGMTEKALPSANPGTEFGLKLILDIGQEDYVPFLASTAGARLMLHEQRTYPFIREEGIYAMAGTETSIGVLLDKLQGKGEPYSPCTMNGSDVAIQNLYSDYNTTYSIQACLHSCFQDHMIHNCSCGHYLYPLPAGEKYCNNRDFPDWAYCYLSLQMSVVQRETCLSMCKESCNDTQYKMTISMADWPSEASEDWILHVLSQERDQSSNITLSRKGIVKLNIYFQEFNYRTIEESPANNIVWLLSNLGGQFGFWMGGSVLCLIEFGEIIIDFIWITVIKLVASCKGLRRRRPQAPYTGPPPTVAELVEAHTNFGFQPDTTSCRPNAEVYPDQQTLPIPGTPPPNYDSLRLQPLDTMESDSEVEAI
T1 sequence (P37091 1-650 partner): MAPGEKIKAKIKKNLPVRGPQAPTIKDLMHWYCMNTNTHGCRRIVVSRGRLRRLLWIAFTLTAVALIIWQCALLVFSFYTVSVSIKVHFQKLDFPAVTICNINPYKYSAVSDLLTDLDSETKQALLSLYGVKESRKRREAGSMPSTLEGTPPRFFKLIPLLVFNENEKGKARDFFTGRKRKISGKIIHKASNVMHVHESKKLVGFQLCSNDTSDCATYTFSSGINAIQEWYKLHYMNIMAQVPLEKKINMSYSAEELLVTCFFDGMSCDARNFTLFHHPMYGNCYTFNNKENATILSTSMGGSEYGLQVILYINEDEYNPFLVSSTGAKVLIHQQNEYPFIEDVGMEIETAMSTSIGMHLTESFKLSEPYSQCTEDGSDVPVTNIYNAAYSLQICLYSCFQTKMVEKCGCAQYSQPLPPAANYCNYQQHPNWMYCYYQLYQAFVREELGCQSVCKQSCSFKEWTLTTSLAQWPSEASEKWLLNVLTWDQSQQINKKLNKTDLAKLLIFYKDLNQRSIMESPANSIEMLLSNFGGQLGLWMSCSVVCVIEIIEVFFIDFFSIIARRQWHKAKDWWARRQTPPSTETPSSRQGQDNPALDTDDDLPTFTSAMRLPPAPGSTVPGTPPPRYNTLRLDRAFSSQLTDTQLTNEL
Description: Surface biotinylation of αENaC in Xenopus oocytes. It is filed as cell-based. The following applies: coexpression with SPLUNC1 in oocytes. The protocol:
The effect of SPLUNC1 on the number of ENaC channels in the plasma membrane was tested by expressing SPLUNC1 and αENaC in Xenopus oocytes. After surface biotinylation of αENaC, total lysate was prepared and lysate from 3-4 eggs was separated on a 10% gel.

B1: SPLUNC1: human SPLUNC1, 256 amino acid secreted PLUNC protein (SEQ ID NO:1); rSPLUNC1 = V5/6His-tagged protein purified from HEK293 media (protein, listed as Homo sapiens)
chain: MFQTGGLIVFYGLLAQTMAQFGGLPVPLDQTLPLNVNPALPLSPTGLAGSLTNALSNGLLSGGLLGILENLPLLDILKPGGGTSGGLLGGLLGKVTSVIPGLNNIIDIKVTDPQLLELGLVQSPDGHRLYVTIPLGIKLQVNTPLVGASLLRLAVKLDITAEILAVRDKQERIHLVLGDCTHSPGSLQISLLDGLGPLPIQGLLDSLTGILNKVLPELVQGNVCPLVNEVLRGLDITLVHDIVNMLIHGLQFVIKV
modifications: V5/6His tag
notes: rSPLUNC1 = V5/6His-tagged protein purified from HEK293 media
Regarding B1, the “plasma membrane ENaC (surface biotinylation)” value is on record as “decreased”.
